Four molecules from PMC10255477, “The Inhibitory Effects and Cytotoxic Activities of the Stem Extract of Nepenthes miranda against Single-Stranded DNA-Binding Protein and Oral Carcinoma Cells” can be followed below.

Data set [1] concerns the target T1, KpSSB (single-stranded DNA-binding protein) (Klebsiella pneumoniae, UniProt A6TGW7 1-174). Put plainly: EMSA; up to 5000 nM protein, no shift; EMSA: 40 mM Tris-HCl pH 7.5, 50 mM NaCl, 37 °C, 60 min; DNA 30 fmol/uL; 8% native PAGE in TBE; [Protein]50 by linear interpolation. To be noted: protein: recombinant, chain copies: 4.
Data set [2] addresses T1, KpSSB (single-stranded DNA-binding …). Description: EMSA; EMSA: 40 mM Tris-HCl pH 7.5, 50 mM NaCl, 37 °C, 60 min; DNA 30 fmol/uL; 8% native PAGE in TBE; [Protein]50 by linear interpolation. The conditions noted are these: protein: recombinant; chain copies: 4; label: 5' biotin. (In general: A gel shift assay detects complexes by their altered migration in electrophoresis.)

T1 sequence (A6TGW7 whole entry): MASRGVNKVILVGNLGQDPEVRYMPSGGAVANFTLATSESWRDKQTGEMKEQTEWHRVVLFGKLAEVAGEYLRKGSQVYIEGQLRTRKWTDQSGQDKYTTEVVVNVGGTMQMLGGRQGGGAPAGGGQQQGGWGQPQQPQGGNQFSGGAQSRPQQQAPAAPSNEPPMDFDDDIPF

B1: PS4/PS3 (dsDNA)
DNA 1: GGGTACCGAGCTATCCGAATTCGGG
DNA 2: CCCGAATTCGGATAGCTCGGTACCC
As to B1, the binding result in data set [1] (blunt, 25 bp) is on record as “no binding”.

B2: dT30 (ssDNA)
DNA: TTTTTTTTTTTTTTTTTTTTTTTTTTTTTT
Turning to B2, in data set [2], the “apparent K (half saturation)” value was determined as 155 ± 20 nM.

B3: dT20 (ssDNA)
DNA: TTTTTTTTTTTTTTTTTTTT
On to B3, for which the binding result in data set [1] (label: 5' biotin) is “no binding”.

B4: dT35 (ssDNA)
DNA: TTTTTTTTTTTTTTTTTTTTTTTTTTTTTTTTTTT
B4: the “apparent K (half saturation)” value in data set [2] came out at 117 ± 18 nM.
